The target of data set [1] is SARS-CoV-2 nsp7-11 polyprotein, tag-free with native (authentic) termini (SARS-CoV-2). The data set is described as follows: native MS.
The data set “native MS” concerns the molecule itself. The data set is described as follows: native MS.

In general, stoichiometry N refers to the number of molecules, sites or subunits per partner or assembly. On to “SARS-CoV-2 nsp7-11 polyprotein, tag-free with native (authentic) termini (domain or fragment)”, for which the stoichiometry N in data set [1] was 2.

B1: MERS-CoV mature nsp7, released from nsp7-11 by SARS-CoV-2 M^pro (natural protein)
chain: SKLTDLKCTSVVLLSVLQQLHLEANSRAWAFCVKCHNDILAATDPSEAFEKFVSLFATLMTFSGNVDLDALASDIFDTPSVLQ
Take B1: in the data set “native MS”, the “stoichiometry N” value was 2.

Source of the values: publication PMC12420816 (Nature Communications, 2025).
